Results on three molecules are retold here after patent US20230080534A1 (SHANGHAI BIOTROY BIOTECHNIQUE, published 2023).

Test [1] concerns the target T1, BSA-conjugated human SEMG2 (497-509) polypeptide (human, also: coupled to BSA, site not given here).
T1 peptide: QIEKLVEGKSQIQ
As to the kind of experiment: ELISA on BSA-S2 (497-509); the EC50 table prints no unit, the axis is log (antibody concentration, nM).

Test [2] addresses T2, human SEMG2 full-length protein (human, UniProt Q02383 24-582, limits assumed).
T2 construct: also called SEMG2 protein; semenogelin 2
T2 sequence: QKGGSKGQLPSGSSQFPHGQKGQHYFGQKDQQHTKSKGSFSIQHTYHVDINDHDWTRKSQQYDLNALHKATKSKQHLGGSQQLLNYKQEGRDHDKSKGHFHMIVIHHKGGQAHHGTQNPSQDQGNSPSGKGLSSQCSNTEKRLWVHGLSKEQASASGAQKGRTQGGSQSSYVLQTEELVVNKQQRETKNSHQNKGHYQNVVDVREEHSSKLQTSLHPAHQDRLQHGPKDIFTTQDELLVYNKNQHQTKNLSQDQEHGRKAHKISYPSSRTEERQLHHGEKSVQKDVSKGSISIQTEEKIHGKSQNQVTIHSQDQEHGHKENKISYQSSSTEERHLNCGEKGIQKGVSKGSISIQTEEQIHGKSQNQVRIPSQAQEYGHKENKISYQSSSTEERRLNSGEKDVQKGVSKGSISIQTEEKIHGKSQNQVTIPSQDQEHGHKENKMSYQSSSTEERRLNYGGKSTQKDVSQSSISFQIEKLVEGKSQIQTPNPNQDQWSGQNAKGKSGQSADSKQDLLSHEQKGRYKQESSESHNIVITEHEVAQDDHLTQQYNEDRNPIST
Put plainly: ELISA on SEMG2; the EC50 table prints no unit, the axis is log (antibody concentration, nM). A general note: In an ELISA, binding on a coated surface is turned into a signal by an enzyme label.

The target of test [3] is T2, human SEMG2 full-length protein. Put plainly: ELISA (FIG. 21B-D).
Test [4] has as its target T1, BSA-conjugated human SEMG2 (497-509) …. As to the kind of experiment: ELISA (FIG. 21B-D).
In another test the target is T3, SEMG2(563-574) fragment (human).
T3 peptide: VAQDDHLTQQYN
Put plainly: ELISA, immobilized antigen SEMG2 (563-574). The source says: (§1) To clearly distinguish the binding epitopes of blocking antibodies (i.e., antibodies that can inhibit the binding between SEMG2 and CD27) and non-blocking antibodies, a corresponding ELISA analysis method was established. […] Anti-mouse or anti-rabbit secondary antibodies were then used to detect the corresponding bound antibodies.

The target in a further test is T4, QAEKLVEGKSQIQ (not fully specified).
T4 construct: member of the group m41; the text speaks of glycine substitution, the sheet prints alanine
T4 peptide: QAEKLVEGKSQIQ
Put plainly: ELISA, immobilized peptide QAEKLVEGKSQIQ
The source says: (§2) FIG. 20 depicts the value detected by ELISA, i.e., OD₄₅₀ absorbance. […] This experiment is used to determine the precise amino acid epitopes that different monoclonal antibodies bind to, and the relative importance of each amino acid to the binding antibody.

A further test deals with T5, QIEKLVEGASQIQ (not fully specified).
T5 construct: member of the group m41; the text speaks of glycine substitution, the sheet prints alanine
T5 peptide: QIEKLVEGASQIQ
Put plainly: ELISA, immobilized peptide QIEKLVEGASQIQ
Description: as §2

The target of test [5] is T2, human SEMG2 full-length protein. As to the kind of experiment: biolayer interferometry (ForteBio Blitz or Gator). The essentials: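 KD of antibodies binding human SEMG2 measured by biolayer interferometry, with antibody and SEMG2 in SD buffer. KD derived by binding-curve analysis.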
In general terms: BLI is a label-free optical method that tracks binding on a fibre tip over time.

The next test deals with T6, QIEKAVEGKSQIQ (not fully specified).
T6 construct: alanine at this position
T6 peptide: QIEKAVEGKSQIQ
Put plainly: ELISA, immobilized peptide QIEKAVEGKSQIQ
Description: as §2

A further test concerns the target T7, QIEKLVEAKSQIQ
T7 construct: member of the group m41; position 504 is glycine in SEMG2 and the sheet prints alanine there
T7 peptide: QIEKLVEAKSQIQ
Put plainly: ELISA, immobilized peptide QIEKLVEAKSQIQ
Description: as §2

For test [6], the target named is T8, SEMG2(497-509) polypeptide QIEKLVEGKSQIQ (human).
T8 peptide: QIEKLVEGKSQIQ
As to the kind of experiment: ELISA, immobilized antigen SEMG2 (497-509).
Description: as §1

For test [7], the target named is T2, human SEMG2 full-length protein. Put plainly: ELISA, immobilized antigen SEMG2 (1-582).
Description: as §1

A further test deals with T9, QIEKLAEGKSQIQ (not fully specified).
T9 construct: member of the group m41; the text speaks of glycine substitution, the sheet prints alanine
T9 peptide: QIEKLAEGKSQIQ
Put plainly: ELISA, immobilized peptide QIEKLAEGKSQIQ
Description: as §2

A further test concerns the target T10, QIEKLVEGKAQIQ (not fully specified).
T10 construct: alanine at this position
T10 peptide: QIEKLVEGKAQIQ
Put plainly: ELISA, immobilized peptide QIEKLVEGKAQIQ
Description: as §2

The next test deals with T11, QIEKLVEGKSQIA (not fully specified).
T11 construct: alanine at this position
T11 peptide: QIEKLVEGKSQIA
Put plainly: ELISA, immobilized peptide QIEKLVEGKSQIA
Description: as §2

A further test concerns the target T12, QIEKLVEGKSAIQ (not fully specified).
T12 construct: alanine at this position
T12 peptide: QIEKLVEGKSAIQ
As to the kind of experiment: ELISA, immobilized peptide QIEKLVEGKSAIQ
Description: as §2

The target of another test is T13, QIEKLVAGKSQIQ (not fully specified).
T13 construct: member of the group m41; the text speaks of glycine substitution, the sheet prints alanine
T13 peptide: QIEKLVAGKSQIQ
Put plainly: ELISA, immobilized peptide QIEKLVAGKSQIQ
Description: as §2
To further precisely define the exact epitopes (specific to the level of single amino acid) to which blocking antibodies MM02, MM05, MM07, MM08, MM13, MM14 bind, corresponding ELISA analysis method was established. […] Anti-mouse or anti-rabbit secondary antibodies were then used to detect the corresponding bound antibodies.

Another test addresses T14, QIAKLVEGKSQIQ (not fully specified).
T14 construct: member of the group m41; the text speaks of glycine substitution, the sheet prints alanine
T14 peptide: QIAKLVEGKSQIQ
As to the kind of experiment: ELISA, immobilized peptide QIAKLVEGKSQIQ

A further test deals with T15, SEMG2(354-403) fragment (human).
T15 peptide: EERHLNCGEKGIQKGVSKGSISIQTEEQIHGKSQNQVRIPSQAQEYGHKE
Put plainly: ELISA, immobilized antigen SEMG2 (354-403).
Description: as §1

Another test addresses T16, AIEKLVEGKSQIQ (not fully specified).
T16 construct: member of the group m41; the text speaks of glycine substitution, the sheet prints alanine
T16 peptide: AIEKLVEGKSQIQ
As to the kind of experiment: ELISA, immobilized peptide AIEKLVEGKSQIQ
Description: as §2

Test [8] addresses T8, SEMG2(497-509) polypeptide QIEKLVEGKSQIQ
Put plainly: ELISA, immobilized peptide QIEKLVEGKSQIQ
Description: as §2

Test [9] concerns the target T1, BSA-conjugated human SEMG2 (497-509) …. Put plainly: ELISA on BSA-SEMG2 (497-509), antibody titrated.
The target of the next test is T17, QIEKLVEGKSQAQ (not fully specified).
T17 construct: member of the group m41; the text speaks of glycine substitution, the sheet prints alanine
T17 peptide: QIEKLVEGKSQAQ
As to the kind of experiment: ELISA, immobilized peptide QIEKLVEGKSQAQ
Description: as §2

In another test the target is T18, SEMG2(442-453) fragment (human).
T18 peptide: IHGKSQNQVTIP
As to the kind of experiment: ELISA, immobilized antigen SEMG2 (442-453).
Description: as §1

Test [10] deals with T2, human SEMG2 full-length protein. Put plainly: ELISA, plate coated with SEMG2 protein, anti-mouse secondary antibody; the EC50 table prints no unit, the axis is log (antibody concentration, nM).
The target in the next test is T19, QIEALVEGKSQIQ (not fully specified).
T19 construct: member of the group m41; the text speaks of glycine substitution, the sheet prints alanine
T19 peptide: QIEALVEGKSQIQ
As to the kind of experiment: ELISA, immobilized peptide QIEALVEGKSQIQ
Description: as §2

In test [11] the target is T2, human SEMG2 full-length protein. As to the kind of experiment: ELISA on SEMG2 protein, run beside the humanized antibodies; the EC50 table prints no unit, the axis is log (antibody concentration, nM).

No end group written: not given here. Where only a bound is given, the exact number is not on record here.

B1: 96-10R-10 (antibody, V domains shown)
VH: QVQLLESGGGLVQPGGSLRLSCSASGFTFSSRAMHWVRQAPGKGLEYVSAISSNGGSTYYADSVKGRFTISRDNSKNTLYLQMSSLRAEDTAVYYCVIEGGSTGSTTSGAFDIWGQGTMVTVSS
VL: DIQMIQSPPSVSASVGDTVTIACRANQGIDSWLAWYQQKPGRAPKLLIYSASRLQSGVPSRFSGGGSGTDFALTISNLQPEDFATYYCQQALSLPITFGQGTRLEIK
The EC50 is the concentration needed to bring the measured effect to its halfway point. Higher therefore signals a less potent agent. Take B1: the concentration giving a half-maximal response (EC50) in test [1] came to 3.36 nM; in test [2], 0.241 nM. The “fold higher affinity than the parent antibody (H88-96)” value in [3] and in [4] was over 10 fold throughout.

B2: MM02 (antibody, IgG2b, V domains shown)
VH: QIQLVQSGPEVKKPGETVRISCKASGYTLTTAGIQWVQKMPGKGLKWIGWINTHSGVPEYAEDFKGRFAFFLETSASTAYLQISNLKNEDTATYFCARLGLLGYWGQGTTLTVSS
VL: DILLTQSPAILSVSPGERVSFSCRASQSIGTTIHWYQQRTNGSPRLLIKYASESISGIPSRFSGSGSGTDFTLSINSVESEDIADYYCQQSNSWPWTFGGGTKLEIKR
One may read the Kd as the free concentration of one partner at which half of the binding sites on the other are occupied at equilibrium, for simple one-to-one binding. The low end stands for tighter binding, the high end for weaker binding. By EC50 (read off the curve) is commonly meant the concentration at which the effect is half-maximal. The low end stands for greater potency, the high end for weaker potency. Turning to B2, the A450 absorbance with SEMG2(563-574) fragment is 0.005; in [6] it was 1.18; in [7], 1.2; with SEMG2(354-403) fragment, 0.004; with SEMG2(442-453) fragment, 0.001. Further, the binding result with SEMG2(563-574) fragment, with SEMG2(354-403) fragment and with SEMG2(442-453) fragment was “no binding” each time. The OD450 absorbance in the test with QAEKLVEGKSQIQ turned out to be 0.541; in the test with QIEKLVEGASQIQ, 0.949; with QIEKAVEGKSQIQ, 0.051; with QIEKLVEAKSQIQ, 0.766; in the test with QIEKLAEGKSQIQ, 0.928; with QIEKLVEGKAQIQ it was 0.173. Also, the OD450 absorbance with QIEKLVEGKSQIA came out at 1.15; with QIEKLVEGKSAIQ, 1.26; with QIEKLVAGKSQIQ, 0.48; with QIAKLVEGKSQIQ, 0.788; with AIEKLVEGKSQIQ, 0.45; in test [8] it was 1.26. Further, the OD450 absorbance with QIEKLVEGKSQAQ amounted to 0.894; with QIEALVEGKSQIQ, 0.47. In addition, binding in test [5] was characterised by a dissociation constant (Kd) of 1.33 nM. Moreover, the “EC50 (read off the curve)” value in test [9] is about 4 ng/mL. The EC50 in test [10] came out at 0.176 nM.

B3: MM05 (antibody, IgG1, V domains shown)
VH: QVQLQQPGAELVRPGASVKLSCEASGYTFTSYWMNWVKQRPGQGLEWIGMIDPSDSETHYNQMFKDKATLTVDKSSSTAYMQLSSLTSEDSAVYYCARYLGGKEGSFDYWGQGTTLTVSS
VL: DIVMSQSPSSLAVSAGEKVTMSCKSSQSLLNSRTRKNYLAWYQQKPGQSPKLLIYWASTRESGVPDRFTGSGSGTDFTLTISSVQAEDLAVYYCKQSYSLPWTFGGGTKLEIKR
B3: the binding result with SEMG2(563-574) fragment, in the test with SEMG2(354-403) fragment and in the test with SEMG2(442-453) fragment was “no binding” in each case. Moreover, the EC50 in [11] turned out to be 0.147 nM; in [10], 0.535 nM. The OD450 absorbance is 0.796 with QAEKLVEGKSQIQ; 0.852 in the test with QIEKLVEGASQIQ; 0.259 with QIEKAVEGKSQIQ; 0.723 in the test with QIEKLVEAKSQIQ; 0.558 in the test with QIEKLAEGKSQIQ; 0.168 with QIEKLVEGKAQIQ. The OD450 absorbance turned out to be 1.21 with QIEKLVEGKSQIA; 1.26 in the test with QIEKLVEGKSAIQ; 0.615 in the test with QIEKLVAGKSQIQ; 0.728 with QIAKLVEGKSQIQ; 0.638 with AIEKLVEGKSQIQ; 1.27 in test [8]. Also, the OD450 absorbance in the test with QIEKLVEGKSQAQ was found to be 0.868; with QIEALVEGKSQIQ, 0.726. Binding in test [5] was put at a Kd of 5.28 nM. For the same molecule, the A450 absorbance in test [6] is 1.17; in test [7], 1.17; in the test with SEMG2(354-403) fragment, 0.008; with SEMG2(442-453) fragment it was 0.009. In addition, the “EC50 (read off the curve)” value in [9] is about 8 ng/mL.
